Experiments:
[1] = target: T1, MKK7 (Homo sapiens, UniProt O14733); conditions: when max. activated; cited from earlier work
T1 construct: purchased Upstate Biotech 14-366
T1 sequence (O14733 1-419): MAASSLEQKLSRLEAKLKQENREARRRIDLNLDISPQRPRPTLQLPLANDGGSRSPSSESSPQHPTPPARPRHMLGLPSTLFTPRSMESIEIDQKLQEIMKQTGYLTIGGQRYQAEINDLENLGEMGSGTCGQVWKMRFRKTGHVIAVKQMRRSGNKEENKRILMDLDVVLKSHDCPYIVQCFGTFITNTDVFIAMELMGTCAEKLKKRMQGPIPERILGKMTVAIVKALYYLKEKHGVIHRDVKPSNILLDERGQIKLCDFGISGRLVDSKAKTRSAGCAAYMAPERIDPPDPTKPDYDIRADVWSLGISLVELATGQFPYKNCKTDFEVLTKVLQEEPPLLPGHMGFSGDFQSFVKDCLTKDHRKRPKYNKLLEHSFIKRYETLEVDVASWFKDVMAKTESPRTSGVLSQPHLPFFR

[2] = target: T1, MKK7; experiment: FP measurements of MKK7 activity, time course, optimized conditions (Example 8); type: biochemical
Protocol: Fluorescence Polarization measurements of MKK7 activity (time course): In this experiment the assay conditions have been optimized. The reactions were stopped with EDTA. […] The following reagents have been used (explanations later on): […] The enzyme reactions were performed in Eppendorf reaction tubes at RT. Aliquots of 20 μl were withdrawn from the reactions at different time points and mixed with 10 μl STOP solution.

[3] = target: T1, MKK7; experiment: FP measurements of MKK7 activity, time course (Example 7); type: biochemical; conditions: 100 μM P1°
Protocol: Fluorescence Polarization measurements of MKK7 activity (time course): In this experiment, the time course has been investigated at P1^∘ substrate concentrations of 100 μM. The reactions were stopped with EDTA. The following reagents have been used (the compositions of the buffers and specifications of the reagents are explained in more detail later on): […] After addition of MKK7, the enzyme reactions were performed in Nunc chambers at RT. The samples were continuously measured at different time points by Fluorescence polarization.

B1: MKK7: MKK7 kinase, supplier Upstate Biotech cat. no. 14-366 (protein, UniProt O14733 2-419, looked up)
Dual specificity …: AASSLEQKLSRLEAKLKQENREARRRIDLNLDISPQRPRPTLQLPLANDGGSRSPSSESSPQHPTPPARPRHMLGLPSTLFTPRSMESIEIDQKLQEIMKQTGYLTIGGQRYQAEINDLENLGEMGSGTCGQVWKMRFRKTGHVIAVKQMRRSGNKEENKRILMDLDVVLKSHDCPYIVQCFGTFITNTDVFIAMELMGTCAEKLKKRMQGPIPERILGKMTVAIVKALYYLKEKHGVIHRDVKPSNILLDERGQIKLCDFGISGRLVDSKAKTRSAGCAAYMAPERIDPPDPTKPDYDIRADVWSLGISLVELATGQFPYKNCKTDFEVLTKVLQEEPPLLPGHMGFSGDFQSFVKDCLTKDHRKRPKYNKLLEHSFIKRYETLEVDVASWFKDVMAKTESPRTSGVLSQPHLPFFR
Specific activity [1]: Approximately 20 Units/mg
Fluorescence Polarization ([2]; NEB ab in STOP sol., MKK7 0.04 μM, 0 h): 147.2 mP
Fluorescence Polarization ([2]; NEB ab in STOP sol., MKK7 0.04 μM, 0.5 h): 141.5 mP
Fluorescence Polarization ([2]; NEB ab in STOP sol., MKK7 0.04 μM, 1 h): 140.2 mP
Fluorescence Polarization ([2]; NEB ab in STOP sol., MKK7 0.04 μM, 1.5 h): 135.8 mP
Fluorescence Polarization ([2]; NEB ab in STOP sol., MKK7 0.04 μM, 2 h): 134.2 mP
Fluorescence Polarization ([2]; NEB ab in STOP sol., MKK7 0.04 μM, 3 h): 138.2 mP
Fluorescence Polarization ([2]; NEB ab in STOP sol., MKK7 0.08 μM, 0 h): 143.3 mP
Fluorescence Polarization ([2]; NEB ab in STOP sol., MKK7 0.08 μM, 0.5 h): 139.1 mP
Fluorescence Polarization ([2]; NEB ab in STOP sol., MKK7 0.08 μM, 1 h): 133.6 mP
Fluorescence Polarization ([2]; NEB ab in STOP sol., MKK7 0.08 μM, 1.5 h): 122.1 mP
Fluorescence Polarization ([2]; NEB ab in STOP sol., MKK7 0.08 μM, 2 h): 115.8 mP
Fluorescence Polarization ([2]; NEB ab in STOP sol., MKK7 0.08 μM, 3 h): 125.0 mP
Fluorescence Polarization ([2]; NEB ab in STOP sol., MKK7 0.2 μM, 0 h): 148.2 mP
Fluorescence Polarization ([2]; NEB ab in STOP sol., MKK7 0.2 μM, 0.5 h): 130.2 mP
Fluorescence Polarization ([2]; NEB ab in STOP sol., MKK7 0.2 μM, 1 h): 114.0 mP
Fluorescence Polarization ([2]; NEB ab in STOP sol., MKK7 0.2 μM, 1.5 h): 102.8 mP
Fluorescence Polarization ([2]; NEB ab in STOP sol., MKK7 0.2 μM, 2 h): 99.2 mP
Fluorescence Polarization ([2]; NEB ab in STOP sol., MKK7 0.2 μM, 3 h): 119.4 mP
Fluorescence Polarization ([2]; NEB ab in reaction, MKK7 0.04 μM, 0 h): 150.0 mP
Fluorescence Polarization ([2]; NEB ab in reaction, MKK7 0.04 μM, 0.5 h): 128.5 mP
Fluorescence Polarization ([2]; NEB ab in reaction, MKK7 0.04 μM, 1 h): 125.7 mP
Fluorescence Polarization ([2]; NEB ab in reaction, MKK7 0.04 μM, 1.5 h): 112.9 mP
Fluorescence Polarization ([2]; NEB ab in reaction, MKK7 0.04 μM, 2 h): 109.7 mP
Fluorescence Polarization ([2]; NEB ab in reaction, MKK7 0.04 μM, 3 h): 78.6 mP
Fluorescence Polarization ([2]; NEB ab in reaction, MKK7 0.08 μM, 0 h): 138.5 mP
Fluorescence Polarization ([2]; NEB ab in reaction, MKK7 0.08 μM, 0.5 h): 122.5 mP
Fluorescence Polarization ([2]; NEB ab in reaction, MKK7 0.08 μM, 1 h): 105.9 mP
Fluorescence Polarization ([2]; NEB ab in reaction, MKK7 0.08 μM, 1.5 h): 86.4 mP
Fluorescence Polarization ([2]; NEB ab in reaction, MKK7 0.08 μM, 2 h): 84.5 mP
Fluorescence Polarization ([2]; NEB ab in reaction, MKK7 0.08 μM, 3 h): 65.0 mP
Fluorescence Polarization ([2]; NEB ab in reaction, MKK7 0.2 μM, 0 h): 137.2 mP
Fluorescence Polarization ([2]; NEB ab in reaction, MKK7 0.2 μM, 0.5 h): 101.4 mP
Fluorescence Polarization ([2]; NEB ab in reaction, MKK7 0.2 μM, 1 h): 83.1 mP
Fluorescence Polarization ([2]; NEB ab in reaction, MKK7 0.2 μM, 1.5 h): 78.1 mP
Fluorescence Polarization ([2]; NEB ab in reaction, MKK7 0.2 μM, 2 h): 72.1 mP
Fluorescence Polarization ([2]; NEB ab in reaction, MKK7 0.2 μM, 3 h): 59.4 mP
Fluorescence Polarization ([3]; MKK7 0.005 μM, 0 h): 131.5 mP
Fluorescence Polarization ([3]; MKK7 0.005 μM, 0.5 h): 137.4 mP
Fluorescence Polarization ([3]; MKK7 0.005 μM, 1 h): 136.8 mP
Fluorescence Polarization ([3]; MKK7 0.005 μM, 1.5 h): 136.9 mP
Fluorescence Polarization ([3]; MKK7 0.005 μM, 3 h): 138.1 mP
Fluorescence Polarization ([3]; MKK7 0.02 μM, 0 h): 135.4 mP
Fluorescence Polarization ([3]; MKK7 0.02 μM, 0.5 h): 140.3 mP
Fluorescence Polarization ([3]; MKK7 0.02 μM, 1 h): 140.9 mP
Fluorescence Polarization ([3]; MKK7 0.02 μM, 1.5 h): 139.7 mP
Fluorescence Polarization ([3]; MKK7 0.02 μM, 3 h): 140.0 mP
Fluorescence Polarization ([3]; MKK7 0.08 μM, 0 h): 133.5 mP
Fluorescence Polarization ([3]; MKK7 0.08 μM, 0.5 h): 137.6 mP
Fluorescence Polarization ([3]; MKK7 0.08 μM, 1 h): 135.8 mP
Fluorescence Polarization ([3]; MKK7 0.08 μM, 1.5 h): 128.4 mP
Fluorescence Polarization ([3]; MKK7 0.08 μM, 3 h): 115.2 mP
Fluorescence Polarization ([3]; MKK7 0.2 μM, 0 h): 135.3 mP
Fluorescence Polarization ([3]; MKK7 0.2 μM, 0.5 h): 132.1 mP
Fluorescence Polarization ([3]; MKK7 0.2 μM, 1 h): 121.9 mP
Fluorescence Polarization ([3]; MKK7 0.2 μM, 1.5 h): 113.8 mP
Fluorescence Polarization ([3]; MKK7 0.2 μM, 3 h): 104.7 mP
Fluorescence Polarization ([3]; MKK7 0.5 μM, 0 h): 135.3 mP
Fluorescence Polarization ([3]; MKK7 0.5 μM, 0.5 h): 125.5 mP
Fluorescence Polarization ([3]; MKK7 0.5 μM, 1 h): 115.3 mP
Fluorescence Polarization ([3]; MKK7 0.5 μM, 1.5 h): 108.8 mP
Fluorescence Polarization ([3]; MKK7 0.5 μM, 3 h): 106.6 mP
Fluorescence Polarization ([3]; MKK7 1.0 μM, 0 h): 135.7 mP
Fluorescence Polarization ([3]; MKK7 1.0 μM, 0.5 h): 119.6 mP
Fluorescence Polarization ([3]; MKK7 1.0 μM, 1 h): 112.2 mP
Fluorescence Polarization ([3]; MKK7 1.0 μM, 1.5 h): 105.3 mP
Fluorescence Polarization ([3]; MKK7 1.0 μM, 3 h): 108.4 mP
